Measurements: publication PMC8828381

Biological target: biotinylated SARS-CoV-2-S1 (SINO BIOLOGICAL #40591-V08H-B) (SARS-CoV-2)
Test: SPR

integrin α5β1 extracellular domain with flag tag on α5 and His tag on β1 (from UniProt P08648;P05556) (complex)
Kd: 31 nM
